The text below walks through data of the emibetuzumab library of Makowski et al. (2022).

To fix the notation:
B1: VH:VL chains; a variant is named by its letters at X, in order (parent)
chain 1: QVQLVQSGAEVKKPGASVKVSCKASGYTFTDYXMHWVRQAPGQGLEWMGXVNPNXXXTTYNQKFEGRVTMTTDTSTSTAYMELRSLRSDDTAVYYCARXNXLDXWGQGTTVTVSS
chain 2: DIQMTQSPSSLSASVGDRVTITCSVSSSVSSIYLHWYQQKPGKAPKLLIYSTSNLASGVPSRFSGSGSGTDFTLTISSLQPEDFATYYCQVYSGYPLTFGGGTKVEIK

The variants in the data set derive from B1. As to the kind of experiment: yeast display scFab, FACS + sequencing. The procedure, abridged: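 Non-specific binding was called from deep sequencing of sorted yeast cells displaying a heavy-chain CDR mutant scFab library. Cells labelled with anti-Myc and biotinylated ovalbumin (260 μg/mL in PBSB, 3 h, room temperature) or soluble membrane proteins (130 μg/mL, 20 min on ice) were FACS-sorted, collecting the top 25% and bottom 10% of binders from two replicates. A sequence was positive when present in ≥3 of 4 pooled positive samples and absent from all negatives, and negative under the converse rule.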
Regarding FRRRGALD, the non-specific binding call is recorded as “binds”. The result for DRAGDDLA reads “no binding”; that for YRGKGSWA, “binds”.

With YRRRGVAA, the non-specific binding call is listed as “binds”.

Regarding SETTDAGD, the non-specific binding call is “no binding”. With VRKKGYVY the entry was “binds”; with DGRGNSGD, “no binding”; with ARAAGDWV, “no binding”. With YRRGGSVA the entry was “binds”. The result for YRAKGAWY reads “binds”; that for YRAKGSLD, “binds”. Consider YRAKGSLA, for which the non-specific binding call is recorded as “binds”.

Turning to DARGGDWV, the non-specific binding call was “no binding”. The result for DTAGDAAV reads “no binding”; that for VKGRSDGV, “no binding”; that for DAEGDAGD, “no binding”. With AAGRAYGA the entry was “binds”; with ARKTGAGA, “binds”; with DTGRGSGV, “no binding”. With DAGGGDGA the entry was “no binding”; with YRERGSSF, “binds”. Turning to VATRGYLV, the non-specific binding call is recorded as “binds”. YTGTSAVA: the non-specific binding call is on record as “no binding”. As to FRGTGSGD, the non-specific binding call is on record as “binds”.

In the case of FRRRGAVD, the non-specific binding call was “binds”. The result for DTKAADWY reads “no binding”; that for DAGEASAV, “no binding”; that for FRRGGASA, “binds”. The result for ARRGAAGV reads “binds”; that for SEEGTDWY, “no binding”; that for YRARGSVS, “binds”. With FARKGSGA the entry was “binds”; with VTRGDSGA, “no binding”. On to YRRRGALF, for which the non-specific binding call is recorded as “binds”.

FTRAGAAA: the non-specific binding call is on record as “binds”. The result for YRGGSAGF reads “binds”; that for YRTGDSGD, “no binding”. As to SRGRGAGF, the non-specific binding call is “binds”. For the variant VEGGGSSA, the non-specific binding call is reported as “no binding”.

Regarding VREGDDAV, the non-specific binding call is recorded as “no binding”.

In the case of VKGKGDAV, the non-specific binding call was “no binding”.

Regarding FTEGDSGY, the non-specific binding call is recorded as “no binding”. The result for DATGGFGV reads “no binding”; that for VEGKGAGD, “no binding”; that for ARKGSSGD, “binds”. The result for VRERGSWV reads “binds”; that for VKEADDVA, “no binding”; that for VAKKNASF, “no binding”. With DKGGAAGD the entry was “no binding”. In the case of AARADAVV, the non-specific binding call is “no binding”. The result for VRTEDDVA reads “no binding”; that for VTGEDAGD, “no binding”; that for DRGRDAGA, “no binding”.

Turning to FAGGGASD, the non-specific binding call is on record as “no binding”. In the case of VTTRASGD, the non-specific binding call was “no binding”. With YEKEDYLA chain 1 G108D the entry was “no binding”; with VEETSSLD, “no binding”. The result for FKGKGAAV reads “binds”; that for VKKEDAGD, “no binding”. With VEARNAGA the entry was “no binding”; with YRAKGYGA, “binds”; with YRRKGSGY, “binds”. DAGTGSGA: the non-specific binding call is “no binding”.

As to SRGGGVGY, the non-specific binding call is given as “binds”. On to VRTKADAV, for which the non-specific binding call was “no binding”. With VTGRAALA the entry was “no binding”; with ARGRDAWV, “binds”.

As for YRKGSALD, the non-specific binding call is given as “binds”.

For the variant VAGGDDGA, the non-specific binding call is on record as “no binding”. The result for FRGKGAAV reads “binds”; that for YRARSSGV, “binds”. With YAGTGFVD the entry was “binds”. For YRARGASA, the non-specific binding call was “binds”. The result for YRARSSLY reads “binds”. The result for SAERSAAF reads “no binding”; that for YRTRGAWF, “binds”; that for DKGEGDLA, “no binding”. The result for YRTAGSSD reads “binds”. For YRAGGVGD, the non-specific binding call was “binds”. Regarding SEARSAVS, the non-specific binding call is “no binding”. In the case of SEARSAVV, the non-specific binding call is listed as “no binding”. As for DARADSLV, the non-specific binding call is “no binding”. Turning to VKGKSSWS, the non-specific binding call was “binds”. VKGKGASA: the non-specific binding call is on record as “binds”. As to YAREAALS, the non-specific binding call is reported as “binds”. For the variant DRRGDDGV, the non-specific binding call is given as “no binding”. The result for FGEEDFSS chain 1 W105R reads “binds”. With DRAGDDWA the entry was “no binding”; with DTGTGALV, “no binding”. In the case of FAKTDAGF chain 1 G108D, the non-specific binding call is given as “binds”.

As for YRAGASGD, the non-specific binding call is recorded as “binds”. Regarding VRAGADVA, the non-specific binding call was “no binding”. VRAGADVV: the non-specific binding call was “no binding”. For VRAGADVY, the non-specific binding call is “no binding”. The result for YRAGGFVV reads “binds”; that for VRTRGALS, “binds”.

In the case of VTGTGDAV, the non-specific binding call is reported as “no binding”. Take VETEGDGF: the non-specific binding call is “no binding”. On to YKGRGFSD, for which the non-specific binding call was “binds”. With YRGRGSSF the entry was “binds”; with DGGRAFWF, “binds”; with YRGRASLY, “binds”. The result for VGGTGDVF reads “no binding”.

Turning to VAGTGSSA, the non-specific binding call is on record as “no binding”. Take YKKGGSLD: the non-specific binding call is listed as “binds”. The result for DEGGTAAA reads “no binding”; that for YRRRGSWD, “binds”. DRAGDSGF: the non-specific binding call was “no binding”. The result for VEGRGDGA reads “no binding”; that for DKEGGSSS, “no binding”; that for YKGKGAWS, “binds”. Take SKAGDAWD: the non-specific binding call is reported as “binds”. In the case of YRGASAAA, the non-specific binding call is listed as “binds”. Consider STTGSASF, for which the non-specific binding call is “no binding”. For the variant DRGRGDVV, the non-specific binding call is reported as “no binding”.

Take YRARGAGA: the non-specific binding call is given as “binds”. FKRRSSGD: the non-specific binding call was “binds”. YRKRTFGA: the non-specific binding call is “binds”. With YTTRGAGA the entry was “no binding”.
